In patent US11723946B2, “Methods for regulating transcription of multiple genes and expression of multiple targets” (CHINA MEDICAL UNIVERSITY, priority 2014, dated 2023):

Tests used:
[1] = tested on: Liver (Fatty liver genes); settings: Down-regulated, 2.5 mmol/kg daily, 7 days
Description: (§1) The wild-type FVB mice were divided into the control group and the experimental group, wherein the mice in the experimental group were daily administered with 20 μl peptide-containing solution that contains 2.5 mmol/kg of the present peptide for 7 days. Moreover, the mice in the control group were daily administrated with 20 μl PBS solution for 7 days.
(§2) After the daily administration, the tissues of column, muscle, fat pad, liver and kidney were collected for analyzing the expression of multiple targets by system biology analysis. Herein, the altered expressions of the targets in the genome were determined by using DNA microarray which is a well-established tool for systematic biology analysis. Furthermore, the results of the DNA microarray were further categorized and analyzed by bioinformatics analysis to determine the effect and affected signaling pathways of the present polypeptide. Therefore, it can determine the downstream targets of the present polypeptide comprising the amino acid sequence of SEQ ID No. 1 by the mechanism investigation through microarray analysis and gene expression profile. The detail steps including:
(§3) (1) RNA preparation: The total RNA was extracted from the tissue by using RNeasy Mini Kit (Qiagen, Valencia, Calif., USA). The amount of the extracted total RNA was measured by Beckman DU800 spectrophotometer (Beckman Coulter, Fullerton, Calif., USA). In the next step, the quality of the RNA sample with A260/A280 ratio more than 1.8 was further evaluated by Agilent 2100 bioanalyzer (Agilent Technologies, Santa Clara, Calif., USA). When with the RNA integrity number of the sample is more than 8.0, it would be analyzed by the following microarray analysis.
(§4) (2) DNA microarray analysis: The procedure of DNA microarray analysis was conducted according to the reference (Cheng, 2007). Briefly, 5 μg of total RNA was amplified by in vitro transcription using MessageAmp™ aRNA kit (Ambion). In the following, the fluorescence dye, Cy5, was chemically labeled on the amplified RNA (aRNA). After the labeling, the fluorescence labeled aRNA was hybridized with Whole Genome OneArray™ in hybridization buffer (Phalanx Biotech Group, Taiwan) on cover slide. Following the hybridization reaction at 50° C. over-night, the non-specific binding on the chip was washed by three washing steps. The washed chip was dried by centrifugation and was scanned by Axon 4000 scanner (Molecular Devices, Sunnyvale, Calif., USA) to measure the fluorescence signals. The fluorescence intensity of Cy5 on each spots was further analyzed by genepix 4.1 (Molecular Devices). First, the signals of each spot were adjusted by deducting the intensity of background. In the next step, the spots including the probes of internal controls or the spots with the signal-to-noise ratios less than […] would be removed. The qualified spots were normalized by limma package which is belonged to R console (Smyth, 2005).
(§5) (3). Analysis of the functional mechanism and affected signaling pathways by using bioinformatics software: The altered downstream targets, functional mechanisms, affected signaling pathways and the disease relevance were investigated by using the bioinformatics software such as Medical Subject Headings (MeSH, http://www.nlm.nih.gov/mesh/meshhome.html) and BiblioSphere Pathway Edition.

[2] = tested on: Kidney (Diabetes; Nephrosis genes); settings: Down-regulated, 2.5 mmol/kg daily, 7 days
Description: as §1, §2, §3, §4, §5

[3] = Muscle histology (H&E) in genetic deficient mice; assay type: in vivo; settings: 2.5 nmol/kg peritoneal twice a week, 4 weeks; vs control mice
Text: Collecting the muscles from the mice of the both groups stated in example 5. The collected muscles were for histological examination. In the histology examination, the cell number and cellular size of the muscular tissue were examined by H&E staining and microscopy observation.

NF-κB [4] = assay: Ex vivo bioluminescent imaging of organs, LPS-induced NF-κB/luc transgenic mice; assay type: in vivo
Description: The mice of the three groups manipulated in example 3 were abdominally injected with 150 mg/Kg luciferin. After luciferin injection for 5 minutes, the mice were sacrificed and the tissues including brain, heart, lung, liver, spleen, stomach, kidney, ovary and intestine were rapidly removed. The collected tissues were placed in the IVIS Imaging System-200 Series (Xenogen, Hopkinton, Mass.) and imaged with the same setting used for in vivo bioluminescent imaging.
In the table 2, the average of luciferin value in the mice of the group 2 was divided to average of luciferin value in the mice of the group 1 to obtain the fold change. In table 3, the average of luciferin value in the mice of the group 3 was divided to the average of luciferin value in the mice of the group 2 to obtain the fold change.

NF-κB [5] = assay: Whole animal bioluminescent imaging, LPS-induced NF-κB/luc transgenic mice; assay type: in vivo
Text: Mice: The NF-κB/luc transgenic mice bearing the luciferase transgene driven by two copies of the NF-kappaB regulatory elements were mated with wild-type FVB mice to generate the hybrid NF-κB/luc transgenic offspring for the experiments. Whole animal bioluminescent imaging: 15 mice with age of 6˜8 weeks were randomly divided into three groups. The group 1 was the blank group; the group 2 was control group; and the group 3 was experimental group. The mice of the group 2 and the group 3 were administration with 100 ul of […] lipopolysaccharide (LSP) solution to induce the inflammation in the mice by intraperitoneal injection (IP injection). As the blank control, the mice of group 1 were administered with 100 μl of PBS by IP injection. After the LPS-injection for 5 minutes, the mice of the group 3 were further injected with 20 μl solution that contains 0.5 mg/Kg of the present polypeptide by IP injection. In contrast, the mice of the group 2 and the […] were injected with 20 μul of water. […] For in vivo imaging mice were anesthetized with isoflurane and injected intraperitoneally with 150 mg/kg luciferin. After 10 minutes, the mice were placed face up and imaged for 1 min with the camera set at the highest sensitivity by IVIS Imaging System-200 (Series Xenogen Hopkinton, Mass.). The photons emitted from the tissues were quantified by Living Images software (Xenogen, Hopkinton, Mass.) and were shown in FIG. 4A. In the FIG. 4A, the Y-axis shown the signal strength (photons/sec) that stands for total photons diffused from the mice.

[6] = group 3 (LPS + 0.5 mg/Kg polypeptide IP) vs group 2 (LPS), down-regulation
[7] = group 3 (LPS + 0.5 mg/Kg polypeptide IP) vs group 2 (LPS), up-regulation

B1: present polypeptide: polypeptide comprising the amino acid sequence of SEQ ID No. 1; made by peptide synthesis, recombinant expression or extraction from Momordica charantia (peptide, listed as Artificial synthsis)
chain: SRCQGKSSWPQLVGSTGAAAKAWIERENPRVRAVIIKVGSGATKDFRCDRVRVWVTERGIVARPPTIG
- Fold, Aldh2 [1]: 2.5 folds
- Fold, Ctla4 [1]: 1.56 folds
- Fold, Cyp17a1 [1]: 1.52 folds
- Fold, Mmp2 [1]: 2.11 folds
- Fold, Mttp [1]: 3.53 folds
- Fold, Sod2 [1]: 1.71 folds
- Fold, Apoc3 [2]: 2.5 folds
- Fold, Ctla4 [2]: 1.65 folds
- Fold, Fabp2 [2]: 1.62 folds
- Fold, Fgb [2]: 1.91 folds
- Fold, Hp [2]: 2.35 folds
- muscular dystrophy (H&E histology of muscle) [3]: improved the muscular dystrophy
- luminescent intensities detected from lung, liver, kidney and intestine (NF-κB [4]; experimental group (group 3) compared with control group (group 2)): obviously decreased
- Fold change of the luciferin value, Intestine (NF-κB [4]; [6]): 1.96
- Fold change of the luciferin value, Kidney (NF-κB [4]; [6]): 1.08
- Fold change of the luciferin value, Liver (NF-κB [4]; [6]): 1.57
- Fold change of the luciferin value, Lung (NF-κB [4]; [6]): 1.68
- Fold change of the luciferin value, Brain (NF-κB [4]; [7]): 1.40
- Fold change of the luciferin value, Heart (NF-κB [4]; [7]): 1.13
- Fold change of the luciferin value, Ovary (NF-κB [4]; [7]): 1.17
- Fold change of the luciferin value, Spleen (NF-κB [4]; [7]): 1.08
- Fold change of the luciferin value, Stomach (NF-κB [4]; [7]): 1.11
- suppression of luminescent intensity (NF-κB [5]; group 3 (LPS + 0.5 mg/Kg polypeptide IP)): about 38%
- average of luciferin value (NF-κB [5]; group 3: LPS + 0.5 mg/Kg polypeptide IP, 4 hours after injection): 19.82×10^7 photons/sec
